Test: soluble on expression in E. coli; label from the status in PepcDB or PDB records

| Sequence | soluble on expression in E. coli |
| --- | --- |
| MSLKVLIIGGVAAGTKTAAKIKREMGDNCSVTILNKGDDISYAGCGLPYYVGKIIEDKSSLIVNTPESFSKLTGAEVRCGVEVTSIDRNAKQVTLKTLSTGEKENLSYDKLVIATGADPIKPPIPGIDLPGVFFMRTPNDAIKLRDSIENGIKRAVVIGGGFIGLEIAENLSAMGIRVSVVDMAEHVMPGFDTDFAEYVENHMADKGIMIFTGDQVVGIEGENKVEKLRTKNRAIKTDLVVMSVGIRPNTGFLKDTGLEFAPNNTIIADEYMLTNDKDIYVVGDCAFVKNSLTNKPTWSPMGSSANHEGRICAQNISGKSKTYNGVLGTTVVKLPELNAGKTGLSKEIAEKEGYNVCSVTIATDDKAHYYPGASNFIIRMVAEKNTRKLLGVQVMGPGAVDKIVDIAATAITLGADLYSLESMDLAYAPPFSTAIHPFVVAVNVLQNKLNGELDSVLLDEIEDFDSWTKLDVSKAPSIPSLRYIPVGEINGEIEGLAKDEKILLICAKGKNSYMAQNRLRRFGYTNTKVLEGGILFYPNLKVMEEGHHHHHH | soluble |
| MSLKYKLLVLDLDGTLTNAKKEITLHNREALIRVQQQGVKLILASGRPTFGIVPLADELRMKEFGGFILSYNGGEIIDWSTGEIVYANVLPDEVIPRLYECATRNQLPILTYDRQYIITEYPDDVYVRKEAFLNKMQIYPSTDFLKDIRLPLPKCLIVGEPHRLIPIEAELSVELQGQLSVYRSEPFFLELVPQGIDKAQSLSVLLNKLNMNREEMVAVGDGYNDLSMIQFAGLGVAMGNAQEPVKKAADYITLSNEEDGVAAVVNKFFTKAPEKGEGHHHHHH | soluble |
| MSLKYSSTTADYLVWSDAMNLIRKLAKDENYKISLLIALGCFTGLRISDILSLRWKQILDADEFTVIEKKTDKVRTIRLNPQLQHHIKECYEHINPVGINAPILISQKGTIFTVQRINIILKEVKKKYRLKIKNFSCHSLRKTFGRQVYNMNSDNAELALVKLMELFNHSSVAITKRYLGLRQEEILQTYDCLSF | not soluble |
| MSLLITAGVIALGFNFKRFQNEYDWLTLKPEQKLNVPLVNQLPDLPNGCEVTSLAMLLKYYDINVSKLELSSNIKHVSSFVGNNYRGNPHVGFVGYMSIKNAGWCVYNEPLYNVARKYTKRIRNYTGNDFVQVLKLVSKRHPVVIITTLKFDRVNDMQTWSTKQGKVHVTPSSHACVITGYNKKKGIVYVNDPYGVKNKKVSLKKIEASYNQQGKQALYIEEGHHHHHH | soluble |
| MSLLKCSICINDERITRILIVDGRPICKECKVFLEHPPDKEKIKKELEEILSKVDKAIVAYSGGKDSIVALYLAKEKYSIDVEAVMVDHGFIAPQAIKNAKNVAKYLDVPLTIIKRDYSDIFREALLKAKSPCRKCSRRTMEILRKYALKKGYRYMITGHELPFGHHPYRLMSGGIIQVRILSLMSEEERMKILKKLPVELPELPGYTSNCLILGPALQRFWERHGYSFEHRRIAALVRYGLLNKEKALKKVQKPEVPQWQWELVKKKLKLEDGFEGHHHHHH | soluble |
| MSLLNPVLLPPKVKAYLSQGERFIKWDDETTVASPVILRVDPKGYYLYWTYQSKEMEFLDITSIRDTRFGKFAKMPKSQKLRDVFNMDFPDNSFLLKTLTVVSGPDMVDLTFHNFVSYKENVGKAWAEDVLALVKHPLTANASRSTFLDKILVKLKMQLNSEGKIPVKNFFQMFPADRKRVEAALSACHLPKGKNDAINPEDFPEPVYKSFLMSLCPRPEIDEIFTSYHAKAKPYMTKEHLTKFINQKQRDSRLNSLLFPPARPDQVQGLIDKYEPSGINAQRGQLSPEGMVWFLCGPENSVLAQDKLLLHHDMTQPLNHYFINSSHNTYLTAGQFSGLSSAEMYRQVLLSGCRCVELDCWKGKPPDEEPIITHGFTMTTDIFFKEAIEAIAESAFKTSPYPIILSFENHVDSPRQQAKMAEYCRTIFGDMLLTEPLEKFPLKPGVPLPSPEDLRGKILIKNKKNQFSGPTSSSKDTGGEAEGSSPPSAPAVWAGEEGTELEEEEVEEEEEEESGNLDEEEIKKMQSDEGTAGLEVTAYEEMSSLVNYIQPTKFVSFEFSAQKNRSYVISSFTELKAYDLLSKASVQFVDYNKRQMSRIYPKGTRMDSSNYMPQMFWNAGCQMVALNFQTMDLPMQQNMAVFEFNGQSGYLLKHEFMRRPDKQFNPFSVDRIDVVVATTLSITVISGQFLSERSVRTYVEVELFGLPGDPKRRYRTKLSPSTNSINPVWKEEPFVFEKILMPELASLRVAVMEEGNKFLGHRIIPINALNSGYHHLCLHSESNMPLTMPALFIFLEMKD | soluble |
| MSLLTSNLGYPRIGENREWKKALESFWANDTTEEQLLATMKELRLNHLRVQQEQEVDLIPVGDFTLYDHVLDMAVMFGIIPKRFLQQGDTPTLSTYFAMARGSKNAQACEMTKWYNTNYHYIVPELHDAAPRLTKNAPLEAYLEAKNELGIDGKPVILGPYSFVKLAKGYEEDKLQETIQSLLPLYIQVIQELVDAGARSIQVDEPSLVTSISAREMALVTRIYEQINEAIADAPLFLQTYFDAVTFYEEVVSLPVKGIGLDFVHGGAKNLEALRTFGFPEDKVLAAGIIDGRNIWISNLRERHELVHQLEQHVAKDRLVLQPSCSLLHVPVTTKREEKLDPTLLGVLAFANEKLTELHTLKQLAAGNEAEVKEALEANDDALAALEKSGWRSGAATSHNLENKKRPQSFNERRPLQEEKWQLPLLPTTTIGSFPQTKDVRRTRSLWRKGELSTVEYERTMKSYIEKWINIQEELGLDVLVHGEFERNDMVEFFGEKLDGFAFTANGWVQSYGSRCVKPPIIYGNVSFTEPMTVAETVYAQSLTDKPVKGMLTGPVTILNWSFVRDDLPLTVIAHQIAEALTHEVTALEEAGIEMIQIDEPAIREGLPLKAEDQQEYLDWAVSAFRASCAHVKATTQIHTHMCYSEFHEMIEAIDDLDADVISIETSRSHGEMISAFEKTTYEKGIGLGVYDIHSPRVPSEEEMLNVIRRALTVLPASLFWVNPDCGLKTRAEKETVAALKNMVAAARAAREELKTKAEGHHHHHH | soluble |
| MSLMKITSVDIIDVANDFASATSKWRPVVVKINTDEGISGFGEVGLAYGVGASAGIGMAKDLSAIIIGMDPMNNEAIWEKMLKKTFWGQGGGGIFSAAMSGIDIALWDIKGKAWGVPLYKMLGGKSREKIRTYASQLQFGWGDGSDKDMLTEPEQYAQAALTAVSEGYDAIKVDTVAMDRHGNWNQQNLNGPLTDKILRLGYDRMAAIRDAVGPDVDIIAEMHAFTDTTSAIQFGRMIEELGIFYYEEPVMPLNPAQMKQVADKVNIPLAAGERIYWRWGYRPFLENGSLSVIQPDICTCGGITEVKKICDMAHVYDKTVQIHVCGGPISTAVALHMETAIPNFVIHELHRYALLEPNTQTCKYNYLPKNGMYEVPELPGIGQELTEETMKKSPTITVKEGHHHHHH | soluble |
| MSLMKNMARKNQKAPWEEEEEIIWVSRTELKNDMLALQKLGEELVELKPSALAKFPLPEDLAEAIKDAQRFKNEARRRQLQYIGKLMRHIDPEPLQAALDKLRNKHSQTTALLHKLEQLRDRIVAEGDSAIEVAMEQYPEADRQRLRLLARQASKEKAGNKPPKSSREIFQLLKEAMLAKQEIEEESEDDLDSAEEGHHHHHH | soluble |
| MSLNENLQELIPTKLAAAIANPLFPAVDSQLRSGRHIGQEYLDNFAFLADFQNELDMFYRRYNVELIRAPEGFFYLRPKATTLIARSVLSELEMLVGKVLCYLYLSPERLAQQGIFSVQEVYDELLNLADESKLLKAVNQRSSGSDLDKQKLAEKVRAAVNRLRRLGMIHTVGEQNSGKFTISESVFRFGAEVRSGDDPREAQLRLIRDGEAATPDSLSQEKSAVKNDEEIEDELDEGLGEEEEGHHHHHH | soluble |
| MSLNGQSEYKGKLDYIIVLGAGLRGKHMLGTQYERVKKAAEYVKENPDVKIVVSGGKGNGEDISEAEAMKQYFLNKGFKNDSIIMEDKSKNTFENLRNSKKILEKISNKKEIRVGVVTSSYHITRAKLLGKRVGLKLYAIPAPINKLLLLQSYTREFFAFYKSIIFDRGEGHHHHHH | not soluble |
| MSLNIPLSGIIPPLVTPLLDDDVLDVEGLQRLIEHLIAGGVHALFVLGTTGESQSLSYKLRMEMIKNTCRIAKGRLPVLVCISDTSIVESVNLACLAADHGADAVVSAPPYYFATGQPELIEFYEHLLPQLPLPLFLYNMPTHTKVNFAPATIQRIAENPGVIGFKDSSANTVYFQSVMYAMKDNPDFSMLVGPEEIMAESVLLGAHGGVNGGANMFPELYVSLYNAAKNADMEEVRRLQEKVMQISATIYTVGQHGSSYLKGLKCALSLLGICSDYVAAPFHKFEQRERGKIWKALQNLGVDEGHHHHHH | soluble |
| MSLNKKIIFFDIDGTLLVHNGKESTIPYSTKEALKKLKEKGHNLFICSGRPIRFAIQEFQEMVDGYICCNGTYIVYNGKCIYNKLIDKDTLKYLIKEFCKLGISASFSGAYNGYSYNMSSEKIHQMNRFYKTENPYILDNWNIEEIEANNVDVFFKNNEHMEKCIKYLEHKLIFNTHKPYLSADVSFKNWDKSKGIEYLVKYMKRDMKDTMAFGDGKNDITMLKTVNIGIAMGNAVDEVKNKADMVTDSAADDGIYNALNKLHLIEGHHHHHH | soluble |
| MSLNKKMIFFDIDGTIVDEKTHVIPEGTIAAIKKARSNGHLVFINTGRTFFNVPDSIRQIGFDGYVCGCGTYIHINGQTLLEKSISHKRCVEIVEKLRECKLDALLEGQKDFFFDQREPVSEKTLELKSKFGKRGYDVSKSWDDSDIVFDKFVIWTRKESNLEAFKSHISNDFDYIDREDEEGEFGEIVLKGYSKATGIKFLQDYFNIPIEDCYALGDSLNDLPMLQYVPNSIAMGNSSKGLFDLVAFVTKDIMEDGIEYALKHYNIIEGHHHHHH | soluble |
| MSLNKKVDIRHIFISSQERGKEEAKKLADEIYNRLKNNEDFETLAKQYSDDEKTKESGGVITELRAGFNEAVFDNAVFTAEAGQLLEPIEVARGYEIVYVDKVTDFYRTRDEYAELLTVDKFMQSDAYKEWFEEYKKNYDIEITDPAMKAFRLFREKQYNEAGALYEELYKSEKDAYYIEMACEAYKLAENWAGLIEAGKLAVKENPDFVNYYLYQAEGEFKVGDANKAKELLKEAEKKAGDNTYFLDLIRKMYESQGLAEDVERIDRKFQEISEKLKGEGHHHHHH | soluble |
| MSLNKPFERRSLLRGAGALTAASLAPWAAGCAADDDDALTFFFAANPDELRPRMRVVNEFQRRYPDIKVRALLSGPGVMQQLATFCAGGKCPDVLMAWELTYAELADRGVLLDLNTLLARDQAFAAELKSDSIGALYETFTFNGGQYAFPEQWSGNFLFYNKQLFDDAGVPPPPGSWERPWSFAEFLDAAQALTKQGRSGRDRQWGFVNAWVSFYAAGLFAMNNGVPWSVPRMNPTHLNFDHDGFLEAVQFYADLTNKHKVAPSAAEQQSMSTADLFSVGKAGIALAGHWRYQTFDRADGLDFDVAPLPIGPRGRAACSDIGVTGLAIAATSRRKDQAWEFVKFATGPVGQALIGESRLFVPVLRSAINSHGFANAHRRVGNLAVLSEGPAYSEGLPVTPAWEKIAALMDRYFGPVLRGSRPATSLTGLSQAVDEVLRNEGHHHHHH | not soluble |
| MSLNKRKGILAIGAHPDDIELGCGASLARLAQKGIYIATVVMTTGNSGVDGIIDRHEESRNALKILGCHQTIHLNFADTRAHLQLNDMISALENIIKNQIPSDVEIIRVYTMHDADRHQDHLAVYQASMVACRAIPQILGYETPSTWLSFMPQVFESVKEEYFSLKLTALKKHKSQSQRDYMRPERLRAVAQFRGQQVNSDLGEGFVIHKMILEGHHHHHH | not soluble |

Reference: the DeepSol protein solubility set
